Test results published in the supplement of paper PMC10567573.
± gives the standard deviation.

Assay: protein stability index of a GFP-peptide fusion (GPS, HEK-293T) (PSI 1-6); higher = more stable
Details: c terminus: a fixed tail appended
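Further: 24-mer peptide tiles fused after GFP, lentivirally expressed, FACS-sorted into six equal bins by GFP/DsRed ratio, decoded by Illumina sequencing, PSI is the read-weighted mean bin number.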

| Sequence | protein stability index (treatment: DMSO) | protein stability index (treatment: MLN4924 1 uM, 8 h) |
| --- | --- | --- |
| NGNEEDNHLPPQTKRSSRNPVFQD [FAM104A] | 5.16 ± 0.29 | 5.26 ± 0.2 |
| IGGAAPSLGALDLLGPATGCLLDD [SERTAD1] | 4.28 ± 0.19 | 4.17 ± 0.2 |
| CVNYEGQSAYDVADMLKQYFRDLP [DLC1] | 2.54 ± 0.21 | 2.65 ± 0.32 |
| RKDVCKSTHHGCEHICVNNGNSYI [MATN2] | 3.01 ± 0.32 | 3.07 ± 0.23 |
| PDLTQAPSSLMETLEQHLNTLEGK [SNAP91] | 4.77 ± 0.35 | 5.08 ± 0.21 |
| KPYKCTLCGENFSHRSNLIRHQRI [ZNF263] | 2.74 ± 0.51 | 3.43 ± 0.39 |
| LAQDWERCNTTCGRGVKKRLVLCM [ADAMTSL2] | 1.56 ± 0.33 | 1.79 ± 0.19 |
| RGSIQSRYISMSVWTSPRRLVELA [PRAME] | 2.52 ± 0.24 | 2.71 ± 0.3 |
| EAAEAVRPEERKTCRNPACGPQWE [ADAMTSL2] | 4.8 ± 0.27 | 4.74 ± 0.21 |
| EPLPVERDPAAGAAPFRFVARPVR [ZNF511] | 2.77 ± 0.68 | 3.48 ± 0.87 |
| VGYQSQNISCFFRLVDRDSVWGYD [MYORG] | 2.34 ± 0.85 | 2.34 ± 0.17 |
| FNGDFVDRGKDSVEILMILFAFML [PPEF2] | 2.62 ± 0.54 | 2.15 ± 0.27 |
| FSHTLVSLSLFGCTNIFYEEENPG [ZER1] | 2.65 ± 0.12 | 2.29 ± 0.029 |
| TKKRKLGKNPDVDTSFLPDRDREE [FAM50A] | 5.18 ± 0.14 | 5.23 ± 0.41 |
| MQQLYQVQLAQQQAALQKQQEVVV [ACBD3] | 2.96 ± 0.19 | 3.05 ± 0.22 |
| RICLGKFTFPGMSLDKRQGEGLRI [TPRG1] | 2.12 ± 0.19 | 2.08 ± 0.32 |
| QSHPHLVAEAFRALASAQCPQFGI [SPOPL] | 2.35 ± 0.4 | 2.16 ± 0.023 |
| AAPGVDLTRVLAEMREQYEAMAEK [KRT15] | 4.57 ± 0.32 | 4.35 ± 0.086 |
| EKRLQEIEELEREAERKIIEENIT [SRPK2] | 5.03 ± 0.33 | 5.39 ± 0.26 |
| YIGSIMKGGAVAADGRIEPGDMLL [DVL3] | 2.34 ± 0.22 | 2.57 ± 0.43 |
| PIDFEESRFYEIHARARDQGQPAM [PCDHGC5] | 4.3 ± 0.2 | 4.38 ± 0.21 |
| CVDLTITNLLEGAVAFMPEDITKG [AUP1] | 2.29 ± 0.2 | 2.57 ± 0.33 |
| SVRMRRAEKSVAPSNTGSRTTSVR [NEK8] | 4.62 ± 0.24 | 4.6 ± 0.26 |

| Sequence | protein stability index (treatment: DMSO) | protein stability index (treatment: MLN4924 1 uM, 8 h) |
| --- | --- | --- |
| QGPMSQRRENYGVPPRRATISSWR [RBMY1A1] | 3.68 ± 0.22 | 3.57 ± 0.36 |
| PQTHSNRIYRMIKLGLGIDEDEVA [HSP90AB1] | 3.25 ± 0.4 | 3.49 ± 0.31 |
| EDEDIYKLRHDLKKTSITQQPSKH [PLK2] | 4.98 ± 0.35 | 5.1 ± 0.13 |
| YTSGTTGIPKGVMLSHDNITWIAG [ACSBG2] | 2.37 ± 0.36 | 2.21 ± 0.31 |
| GKNLYTNEYVAIKLEPIKSRAPQL [CSNK1G1] | 2.35 ± 0.032 | 2.58 ± 0.13 |
| SDQETLRIHERLVAGSLAGAIAQS [SLC25A25] | 3.87 ± 0.18 | 3.8 ± 0.43 |
| EPCQLPSESPGSLSEVLAQPQGAL [DNAAF3] | 5.16 ± 0.22 | 5.13 ± 0.39 |
| TELRRSGSSRSPGSKARAEGRGPV [PLEKHN1] | 4.84 ± 0.31 | 4.96 ± 0.52 |
| DGAGKTPTLGGGFHVNLGKESRAQ [BRF1] | 4.63 ± 0.14 | 4.77 ± 0.34 |
| LVQHGVKPQEIVQVEIFSTNPDLY [IQUB] | 2.15 ± 0.21 | 2.32 ± 0.33 |
| QGSLSNTYLSKVDPDGKKIKQIQQ [FBXO33] | 4.28 ± 0.31 | 4.34 ± 0.18 |
| GAYDFPSPEWDTVTPEAKNLINQM [CAMK2B] | 3.76 ± 0.25 | 3.85 ± 0.25 |
| PLLPAPPKTPMDGADCGIQWWNAV [LYSMD4] | 3.48 ± 0.42 | 3.62 ± 0.21 |
| RGGGDPWTNGSGLALCQRYYHRGH [MCOLN1] | 3.08 ± 0.23 | 3.2 ± 0.28 |
| HARYRVIHFIAVAVCLLGVGTMVG [SLC35F2] | 2.42 ± 0.42 | 2.28 ± 0.15 |
| YCKNESGSRSNGMWAHSMTVQDYQ [ATE1] | 2.35 ± 0.45 | 2.7 ± 0.37 |
| IVWFSFEFVVRCFACPSQALFFKN [KCNA4] | 2.91 ± 0.1 | 2.72 ± 0.81 |
| RSGIQFGSWGSFQLPGLLNFGEFK [CLCN6] | 2.29 ± 0.26 | 2.4 ± 0.3 |
| VLAAKERRCGELKRKLGLTALVGL [TPD52L3] | 2.44 ± 0.24 | 2.07 ± 0.23 |
| ERAHKGEKPYGCSECGKAFPRKSE [ZNF649] | 4.23 ± 0.12 | 4.7 ± 0.48 |
| MEGQRQESHATLTLAQAHFNNGEY [TTC32] | 4.42 ± 0.33 | 4.39 ± 0.18 |
| GSPVNQQPKKNNVMARTRLVVPNK [FAM219A] | 4.17 ± 0.1 | 4.33 ± 0.31 |
| MAKSVKYTVNFLEAKEGDLHRIEI [CARM1] | 2.55 ± 0.61 | 2.46 ± 0.58 |

| Sequence | protein stability index (treatment: DMSO) | protein stability index (treatment: MLN4924 1 uM, 8 h) |
| --- | --- | --- |
| QESKNQVHRRGEYNVYSTFQSHEP [PPP2R2B] | 3.72 ± 0.38 | 4.2 ± 0.22 |
| DALMKEQLVEMTGLSPRVIRVWFQ [ISL2] | 2.27 ± 0.27 | 2.22 ± 0.12 |
| TFGAAACSIGFAVRYLNAYTGIVL [POP5] | 3.18 ± 0.57 | 3.45 ± 0.15 |
| MNCLPSNRTLWRLDLAGNNIPGDV [LRRC45] | 2.75 ± 0.37 | 2.86 ± 0.4 |
| EFRAHRAVLAASSPYFHDQVLLKG [ZBTB22] | 2.57 ± 0.23 | 2.77 ± 0.4 |
| ASGQSYSSREVFTSSSSSSSRQTR [KRT16] | 4.84 ± 0.15 | 4.8 ± 0.21 |
| KVEFPEARIYEETLNILLYEAQDG [KCTD10] | 2.77 ± 0.15 | 2.94 ± 0.35 |
| SGGPPPKRSAPSGPVRSSSGMGGR [RBMX] | 4.59 ± 0.29 | 4.51 ± 0.21 |
| KRALAEGAQIWCGEGVDKLSLPAR [ALDH8A1] | 3.58 ± 0.3 | 3.71 ± 0.17 |
| GIELMEVDPIGHVYIFATCLGLSY [MAGEA6] | 3.02 ± 0.66 | 2.92 ± 0.41 |
| YYIRYRGAVYADSGNFERCIRLWK [FEM1A] | 2.59 ± 0.35 | 2.5 ± 0.57 |
| MSSQVVGIEPLYIKAEPASPDSPK [ESRRA] | 4.86 ± 0.12 | 4.89 ± 0.095 |
| VLSSEQEFQMFPKSRLSSVSVTYC [ETS2] | 2.21 ± 0.28 | 2.23 ± 0.3 |
| ESLMKDGDKNNDGRIDFDEFLKMM [TNNC2] | 4.53 ± 0.1 | 4.55 ± 0.31 |
| SALASDRFNLILADTNSDRLFTVN [DCAF4] | 2.61 ± 0.18 | 2.69 ± 0.32 |
| RGCSVKIWTAHYDPGHCFAESREL [ALG2] | 2.21 ± 0.26 | 2.11 ± 0.52 |
| TETPLEGDFAWERVRGLGLPKLYL [CDKN1A] | 2.18 ± 0.15 | 2.57 ± 0.34 |
| MRDQYEQMAEKNRRDAETWFLSKT [KRT16] | 4.29 ± 0.089 | 4.31 ± 0.12 |
| RAPRSPGQVTPRGLRLRLPRRESL [C6orf223] | 4.19 ± 0.35 | 4.41 ± 0.25 |
| TGMPMMPQQPVMFAQPMMRPPFGA [SNAP91] | 2.97 ± 0.064 | 2.67 ± 0.33 |
| NWLQVSFTAKHANKVKVLDAPVPD [FSD1] | 3.02 ± 0.15 | 2.91 ± 0.19 |
| HISSCKLGPQVSLDPMKNVTCENG [LOXL2] | 4.15 ± 0.39 | 4.14 ± 0.49 |
| GNQLISNNIKFKKSSILTRAGEQR [CLCN6] | 3.78 ± 0.13 | 4.06 ± 0.44 |

| Sequence | protein stability index (treatment: DMSO) | protein stability index (treatment: MLN4924 1 uM, 8 h) |
| --- | --- | --- |
| WDQVSRLHEVLTEVVPIHGRGNFP [TENT5C] | 2.59 ± 0.28 | 2.67 ± 0.17 |
| QYHHSKIRNRGYNLIYRSTRHLKR [TMEM192] | 3.07 ± 0.25 | 2.98 ± 0.091 |
| KLIKCDEIQVDSEEPVFEAVINWV [KLHL12] | 2.15 ± 0.26 | 2.4 ± 0.36 |
| FMEMNQKLFDDCTQQFKAEKLKEK [PPP2R5C] | 4.26 ± 0.31 | 4.43 ± 0.28 |
| PAPEAAHTTGPTGSAPNSPMALLT [TFE3] | 4.67 ± 0.12 | 4.67 ± 0.16 |
| WLSANPCPHCGDRTFYDPEPILCP [PRAME] | 2.45 ± 0.19 | 2.69 ± 0.45 |
| DKEGYNSIHYAAAYGHRQCLELVS [ANKRD44] | 2.42 ± 0.14 | 2.59 ± 0.21 |
| EKQELQELNDRFANFIEKVRFLEQ [PRPH] | 3.08 ± 0.17 | 3.29 ± 0.34 |
| VCQALAQVDGGANFSVDRWERKEG [CPOX] | 4.41 ± 0.14 | 4.1 ± 0.43 |
| CYETLPRGQCLLYNWEEERATNHL [SPAG8] | 2.92 ± 0.16 | 3.09 ± 0.23 |
| VDITPYLDQLDESLRDKVLQLQKG [INTS3] | 3.79 ± 0.071 | 4.06 ± 0.1 |
| ILEHAHRGEQTTSQVSWEQDLKLF [FCHSD1] | 3.43 ± 0.44 | 3.53 ± 0.68 |
| LRRGASVNRTTRTNSTPLRAACFD [FEM1A] | 3.81 ± 0.38 | 3.87 ± 0.31 |
| RRENSTLDVECHEKEKHVNQLQTK [SASS6] | 5.13 ± 0.11 | 5.26 ± 0.23 |
| LTTSQERELGIRQRDEQLRALQER [FBF1] | 5.02 ± 0.38 | 5.24 ± 0.29 |
| DVSLVGGPADCSPPHPAPAPQHPA [DYRK1B] | 5.02 ± 0.16 | 5.14 ± 0.12 |
| GTTPQISPSTLIGSLRTLELGSES [HDAC6] | 4.52 ± 0.27 |  |
| DRFSGETSAAALSPMSAATLGGLN [SMTNL2] | 4.46 ± 0.14 | 4.21 ± 0.24 |
| KRWQKNNWPKNSNGVTQKASAPTY [NANOGP8] | 3.39 ± 0.17 | 3.47 ± 0.21 |
| IETIKIIETEDQIDKKPVSEKTDE [MIA2] | 5.02 ± 0.39 | 4.7 ± 0.94 |
